Data: the supplement of paper PMC5998384

How the values were obtained:
[1] = test system: HeLa Kyoto; experiment: melting temperature (median over replicates), in situ; higher = more thermally stable
[2] = test system: HeLa Kyoto; experiment: solubility change mitosis vs G1/S (difference of NP-40 vs SDS log2 ratios) (log2 ratio difference); higher = more soluble in mitosis
[3] = test system: HeLa Kyoto; experiment: solubility in G1/S (NP-40 vs SDS abundance) (log2 ratio); higher = more soluble; conditions: cell cycle stage: G1/S
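Throughout, for melting temperature (median over replicates), in situ: HeLa Kyoto cells synchronized by double thymidine or nocodazole block, proteins quantified by TMT10plex mass spectrometry, three independent biological replicates.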
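Throughout, for solubility change mitosis vs G1/S (difference of NP-40 vs SDS log2 ratios): synchronized HeLa Kyoto cells (double thymidine block for G1/S, nocodazole release for mitosis), protein amounts in NP-40 versus SDS lysates quantified by mass spectrometry, three biological replicates.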
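Throughout, for solubility in G1/S (NP-40 vs SDS abundance): HeLa Kyoto cells arrested at G1/S by double thymidine block, proteins quantified by TMT10plex mass spectrometry in mild NP-40 versus SDS extracts, three biological replicates.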

Chain of TAF6 (chain, as listed by the source): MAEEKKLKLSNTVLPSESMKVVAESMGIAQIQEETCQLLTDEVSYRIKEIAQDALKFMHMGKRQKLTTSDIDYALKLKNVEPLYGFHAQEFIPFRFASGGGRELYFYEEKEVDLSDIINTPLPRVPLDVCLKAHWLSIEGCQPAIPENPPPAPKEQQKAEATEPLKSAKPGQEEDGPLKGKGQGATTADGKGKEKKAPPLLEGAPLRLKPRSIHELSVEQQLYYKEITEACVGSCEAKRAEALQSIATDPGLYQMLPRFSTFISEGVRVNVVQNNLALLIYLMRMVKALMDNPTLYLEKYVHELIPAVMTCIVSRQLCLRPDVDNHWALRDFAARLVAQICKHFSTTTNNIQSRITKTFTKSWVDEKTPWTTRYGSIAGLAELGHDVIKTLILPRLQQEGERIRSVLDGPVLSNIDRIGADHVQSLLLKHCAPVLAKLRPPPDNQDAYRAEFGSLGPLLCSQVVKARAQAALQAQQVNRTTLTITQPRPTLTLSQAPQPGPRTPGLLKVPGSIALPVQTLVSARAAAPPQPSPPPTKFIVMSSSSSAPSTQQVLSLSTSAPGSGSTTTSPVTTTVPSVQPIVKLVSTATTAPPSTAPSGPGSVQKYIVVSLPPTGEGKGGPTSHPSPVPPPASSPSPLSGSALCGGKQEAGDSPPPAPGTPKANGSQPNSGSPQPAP
Chain of MARK1 (chain, as listed by the source): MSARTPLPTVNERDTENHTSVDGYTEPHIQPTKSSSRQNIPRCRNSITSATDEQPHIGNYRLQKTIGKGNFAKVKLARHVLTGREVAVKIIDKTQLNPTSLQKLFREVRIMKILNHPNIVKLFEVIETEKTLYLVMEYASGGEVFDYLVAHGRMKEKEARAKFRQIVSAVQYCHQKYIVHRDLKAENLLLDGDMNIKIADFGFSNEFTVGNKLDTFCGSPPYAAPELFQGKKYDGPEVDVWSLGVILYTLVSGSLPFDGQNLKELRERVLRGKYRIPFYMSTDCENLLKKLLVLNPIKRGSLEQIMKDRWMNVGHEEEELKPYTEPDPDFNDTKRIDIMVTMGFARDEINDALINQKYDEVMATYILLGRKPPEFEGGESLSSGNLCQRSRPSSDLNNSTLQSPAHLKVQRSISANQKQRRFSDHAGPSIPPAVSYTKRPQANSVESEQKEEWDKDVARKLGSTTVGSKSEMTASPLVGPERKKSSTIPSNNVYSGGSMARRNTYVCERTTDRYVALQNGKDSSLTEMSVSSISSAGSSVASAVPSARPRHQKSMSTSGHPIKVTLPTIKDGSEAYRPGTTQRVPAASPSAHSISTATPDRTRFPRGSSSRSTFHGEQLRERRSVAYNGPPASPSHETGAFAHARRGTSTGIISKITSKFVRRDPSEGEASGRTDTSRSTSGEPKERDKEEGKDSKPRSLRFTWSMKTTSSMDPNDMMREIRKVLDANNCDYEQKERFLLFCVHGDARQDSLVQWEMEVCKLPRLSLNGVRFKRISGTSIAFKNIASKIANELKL

Substance	melting temperature ([1]; cell cycle stage: G1/S) [°C]	melting temperature ([1]; cell cycle stage: mitosis) [°C]	solubility change mitosis (log2) [2]	solubility in G1/S (log2) [3]
MSSPMPDCTSKCRSLKHALDVLSVVTKGSENQIKAFLSSHCYNAATIKDVFGRNALHLVSSCGKKGVLDWLIQKGVDLLVKDKESGWTALHRSIFYGHIDCVWSLLKHGVSLYIQDKEGLSALDLVMKDRPTHVVFKNTDPTDVYTWGDNTNFTLGHGSQNSKHHPELVDLFSRSGIYIKQVVLCKFHSVFLSQKGQVYTCGHGPGGRLGHGDEQTCLVPRLVEGLNGHNCSQVAAAKDHTVVLTEDGCVYTFGLNIFHQLGIIPPPSSCNVPRQIQAKYLKGRTIIGVAAGRFHTVLWTREAVYTMGLNGGQLGCLLDPNGEKCVTAPRQVSALHHKDIALSLVAASDGATVCVTTRGDIYLLADYQCKKMASKQLNLKKVLVSGGHMEYKVDPEHLKENGGQKICILAMDGAGRVFCWRSVNSSLKQCRWAYPRQVFISDIALNRNEILFVTQDGEGFRGRWFEEKRKSSEKKEILSNLHNSSSDVSYVSDINSVYERIRLEKLTFAHRAVSVSTDPSGCNFAILQSDPKTSLYEIPAVSSSSFFEEFGKLLREADEMDSIHDVTFQVGNRLFPAHKYILAVHSDFFQKLFLSDGNTSEFTDIYQKDEDSAGCHLFVVEKVHPDMFEYLLQFIYTDTCDFLTHGFKPRIHLNKNPEEYQGTLNSHLNKVNFHEDDNQKSAFEVYKSNQAQTVSERQKSKPKSCKKGKNIREDDPVRMLQTVAKKFDFSNLSSRLDGVRFENEKINVIAKNTGNKLKLSQKKCSFLCDVTMKSVDGKEFPCHKCVLCARLEYFHSMLSSSWIEASSCAALEMPIHSDILKVILDYLYTDEAVVIKESQNVDFICSVLVVADQLLITRLKEICEVALTEKLTLKNAAMLLEFAAMYSAKQLKLSCLQFIGLNMAALLEARSLDVLSDGVLKDLSEFYRKMIPAMDRRVITPYQDGPDISYLEVEDGDIFLKEEINMEQNHSETMFKKAKTKAKKKPRKRSDSSGGYNLSDIIQSPSSTGLLKSGKTNSVESLPELLTSDSEGSYAGVGSPRDLQSPDFTTGFHSDKIEAKVKPYVNGTSPVYSREDLKPWEKSPILKISAPQPIPSNRIDTTSSASWVAGSFSPVSPPVVDLRTIMEIEESRQKCGATPKSHLGKTVSHGVKLSQKQRKMIALTTKENNSGMNSMETVLFTPSKAPKPVNAWASSLHSVSSKSFRDFLLEEKKSVTSHSSGDHVKKVSFKGIENSQAPKIVRCSTHGTPGPEGNHISDLPLLDSPNPWLSSSVTAPSMVAPVTFASIVEEELQQEAALIRSREKPLALIQIEEHAIQDLLVFYEAFGNPEEFVIVERTPQGPLAVPMWNKHGC [IBTK]	52.7	50.8	0.351	-0.61
MPVKKKRKSPGVAAAVAEDGGLKKCKISSYCRSQPPARLISGEEHFSSKKCLAWFYEYAGPDEVVGPEGMEKFCEDIGVEPENIIMLVLAWKLEAESMGFFTKEEWLKGMTSLQCDCTEKLQNKFDFLRSQLNDISSFKNIYRYAFDFARDKDQRSLDIDTAKSMLALLLGRTWPLFSVFYQYLEQSKYRVMNKDQWYNVLEFSRTVHADLSNYDEDGAWPVLLDEFVEWQKVRQTS [DCUN1D5]		47.5	-0.0762	0.214
MAAAAPGNGRASAPRLLLLFLVPLLWAPAAVRAGPDEDLSHRNKEPPAPAQQLQPQPVAVQGPEPARVEKIFTPAAPVHTNKEDPATQTNLGFIHAFVAAISVIIVSELGDKTFFIAAIMAMRYNRLTVLAGAMLALGLMTCLSVLFGYATTVIPRVYTYYVSTVLFAIFGIRMLREGLKMSPDEGQEELEEVQAELKKKDEEFQRTKLLNGPGDVETGTSITVPQKKWLHFISPIFVQALTLTFLAEWGDRSQLTTIVLAAREDPYGVAVGGTVGHCLCTGLAVIGGRMIAQKISVRTVTIIGGIVFLAFAFSALFISPDSGF [TMEM165]	60.8	56.9	-0.178	0.0487
MMKFKPNQTRTYDREGFKKRAACLCFRSEQEDEVLLVSSSRYPDQWIVPGGGMEPEEEPGGAAVREVYEEAGVKGKLGRLLGIFENQDRKHRTYVYVLTVTEILEDWEDSVNIGRKREWFKVEDAIKVLQCHKPVHAEYLEKLKLGCSPANGNSTVPSLPDNNALFVTAAQTSGLPSSVR [NUDT4]		49.3	-0.0227	0.505
MEKIEEQFANLHIVKCSLGTKEPTYLLGIDTSKTVQAGKENLVAVLCSNGSIRIYDKERLNVLREFSGYPGLLNGVRFANSCDSVYSACTDGTVKCWDARVAREKPVQLFKGYPSNIFISFDINCNDHIICAGTEKVDDDALLVFWDARMNSQNLSTTKDSLGAYSETHSDDVTQVRFHPSNPNMVVSGSSDGLVNVFDINIDNEEDALVTTCNSISSVSCIGWSGKGYKQIYCMTHDEGFYWWDLNHLDTDEPVTRLNIQDVREVVNMKEDALDYLIGGLYHEKTDTLHVIGGTNKGRIHLMNCSMSGLTHVTSLQGGHAATVRSFCWNVQDDSLLTGGEDAQLLLWKPGAIEKTFTKKESMKIASSVHQRVRVHSNDSYKRRKKQ [WDR89]	57.4	55.9	0.369	-1.26
MKTRQNKDSMSMRSGRKKEAPGPREELRSRGRASPGGVSTSSSDGKAEKSRQTAKKARVEEASTPKVNKQGRSEEISESESEETNAPKKTKTEQELPRPQSPSDLDSLDGRSLNDDGSSDPRDIDQDNRSTSPSIYSPGSVENDSDSSSGLSQGPARPYHPPPLFPPSPQPPDSTPRQPEASFEPHPSVTPTGYHAPMEPPTSRMFQAPPGAPPPHPQLYPGGTGGVLSGPPMGPKGGGAASSVGGPNGGKQHPPPTTPISVSSSGASGAPPTKPPTTPVGGGNLPSAPPPANFPHVTPNLPPPPALRPLNNASASPPGLGAQPLPGHLPSPHAMGQGMGGLPPGPEKGPTLAPSPHSLPPASSSAPAPPMRFPYSSSSSSSAAASSSSSSSSSSASPFPASQALPSYPHSFPPPTSLSVSNQPPKYTQPSLPSQAVWSQGPPPPPPYGRLLANSNAHPGPFPPSTGAQSTAHPPVSTHHHHHQQQQQQQQQQQQQQQQQQQHHGNSGPPPPGAFPHPLEGGSSHHAHPYAMSPSLGSLRPYPPGPAHLPPPHSQVSYSQAGPNGPPVSSSSNSSSSTSQGSYPCSHPSPSQGPQGAPYPFPPVPTVTTSSATLSTVIATVASSPAGYKTASPPGPPPYGKRAPSPGAYKTATPPGYKPGSPPSFRTGTPPGYRGTSPPAGPGTFKPGSPTVGPGPLPPAGPSGLPSLPPPPAAPASGPPLSATQIKQEPAEEYETPESPVPPARSPSPPPKVVDVPSHASQSARFNKHLDRGFNSCARSDLYFVPLEGSKLAKKRADLVEKVRREAEQRAREEKEREREREREKEREREKERELERSVKLAQEGRAPVECPSLGPVPHRPPFEPGSAVATVPPYLGPDTPALRTLSEYARPHVMSPGNRNHPFYVPLGAVDPGLLGYNVPALYSSDPAAREREREARERDLRDRLKPGFEVKPSELEPLHGVPGPGLDPFPRHGGLALQPGPPGLHPFPFHPSLGPLERERLALAAGPALRPDMSYAERLAAERQHAERVAALGNDPLARLQMLNVTPHHHQHSHIHSHLHLHQQDAIHAASASVHPLIDPLASGSHLTRIPYPAGTLPNPLLPHPLHENEVLRHQLFAAPYRDLPASLSAPMSAAHQLQAMHAQSAELQRLALEQQQWLHAHHPLHSVPLPAQEDYYSHLKKESDKPL [ATN1]	53.9	57	0.405	0.377
MAAFRDIEEVSQGLLSLLGANRAEAQQRRLLGRHEQVVERLLETQDGAEKQLREILTMEKEVAQSLLNAKEQVHQGGVELQQLEAGLQEAGEEDTRLKASLLQLTRELEELKEIEADLERQEKEVDEDTTVTIPSAVYVAQLYHQVSKIEWDYECEPGMVKGIHHGPSVAQPIHLDSTQLSRKFISDYLWSLVDTEW [SPC24]	49.2	49.4	0.363	-0.0462
MSSKKAKTKTTKKRPQRATSNVFAMFDQSQIQEFKEAFNMIDQNRDGFIDKEDLHDMLASLGKNPTDAYLDAMMNEAPGPINFTMFLTMFGEKLNGTDPEDVIRNAFACFDEEATGTIQEDYLRELLTTMGDRFTDEEVDELYREAPIDKKGNFNYIEFTRILKHGAKDKDD [MYL12B]	54	52.7	0.538	0.24
MARK1		49	-0.0417	-0.155
MTRGNQRELARQKNMKKQSDSVKGKRRDDGLSAAARKQRDSEIMQQKQKKANEKKEEPK [SERF2]	57.5		0.151	0.752
MAARGRRAEPQGREAPGPAGGGGGGSRWAESGSGTSPESGDEEVSGAGSSPVSGGVNLFANDGSFLELFKRKMEEEQRQRQEEPPPGPQRPDQSAAAAGPGDPKRKGGPGSTLSFVGKRRGGNKLALKTGIVAKKQKTEDEVLTSKGDAWAKYMAEVKKYKAHQCGDDDKTRPLVK [C19ORF43]	54.8	51.3	0.898	0.0485
MTNEEPLPKKVRLSETDFKVMARDELILRWKQYEAYVQALEGKYTDLNSNDVTGLRESEEKLKQQQQESARRENILVMRLATKEQEMQECTTQIQYLKQVQQPSVAQLRSTMVDPAINLFFLKMKGELEQTKDKLEQAQNELSAWKFTPDSQTGKKLMAKCRMLIQENQELGRQLSQGRIAQLEAELALQKKYSEELKSSQDELNDFIIQLDEEVEGMQSTILVLQQQLKETRQQLAQYQQQQSQASAPSTSRTTASEPVEQSEATSKDCSRLTNGPSNGSSSRQRTSGSGFHREGNTTEDDFPSSPGNGNKSSNSSEERTGRGGSGYVNQLSAGYESVDSPTGSENSLTHQSNDTDSSHDPQEEKAVSGKGNRTVGSRHVQNGLDSSVNVQGSVL [WTAP]	48.9	50.3	0.772	-0.0275
MDTAEDPAWLQLLQKDSSPPGPRPTAFFCPQDGSLGAGSSAMRDYCPSQQKASPAPPRHTPDQSPGMESRHRSPSGAGEGASCSDGPRGSLACPSPTCFSPQESPSKETLEAHGASISGTPEATTSGKPEPVSSVKTEPKSSDDRNPMFLEKMDFKSSKQADSTSIGKEDPGSSRKADPMFTGKAEPEILGKGDPVAPGRMDPMTVRKEDLGSLGKVDPLCSSKTYTVSPRKEDPGSLRKVDPVSSDKVDPVFPRKEEPRYSGKEHPVSSEKVAPTSAEKVDLVLSGKRDPGPSGKADPMPLESMDSASTGKTEPGLLGKLIPGSSGKNGPVSSGTGAPGSLGRLDPTCLGMADPASVGNVETVPATKEDSRFLGKMDPASSGEGRPVSGHTDTTASAKTDLTSLKNVDPMSSGKVDPVSLGKMDPMCSGKPELLSPGQAERVSVGKAGTVSPGKEDPVSSRREDPISAGSRKTSSEKVNPESSGKTNPVSSGPGDPRSLGTAGPPSAVKAEPATGGKGDPLSSEKAGLVASGKAAPTASGKAEPLAVGKEDPVSKGKADAGPSGQGDSVSIGKVVSTPGKTVPVPSGKVDPVSLGKAEAIPEGKVGSLPLEKGSPVTTTKADPRASGKAQPQSGGKAETKLPGQEGAAAPGEAGAVCLKKETPQASEKVDPGSCRKAEPLASGKGEPVSLGKADSAPSRKTESPSLGKVVPLSLEKTKPSSSSRQLDRKALGSARSPEGARGSEGRVEPKAEPVSSTEASSLGQKDLEAAGAERSPCPEAAAPPPGPRTRDNFTKAPSWEASAPPPPREDAGTQAGAQACVSVAVSPMSPQDGAGGSAFSFQAAPRAPSPPSRRDAGLQVSLGAAETRSVATGPMTPQAAAPPAFPEVRVRPGSALAAAVAPPEPAEPVRDVSWDEKGMTWEVYGAAMEVEVLGMAIQKHLERQIEEHGRQGAPAPPPAARAGPGRSGSVRTAPPDGAAKRPPGLFRALLQSVRRPRCCSRAGPTAE [GPRIN1]	54.4	53.5	-0.114	0.2
TAF6	49.1	49.6	0.046	0.14
MATLIYVDKENGEPGTRVVAKDGLKLGSGPSIKALDGRSQVSTPRFGKTFDAPPALPKATRKALGTVNRATEKSVKTKGPLKQKQPSFSAKKMTEKTVKAKSSVPASDDAYPEIEKFFPFNPLDFESFDLPEEHQIAHLPLSGVPLMILDEERELEKLFQLGPPSPVKMPSPPWESNLLQSPSSILSTLDVELPPVCCDIDI [PTTG1]			0.554	0.176
